From patent US20230295751, “Biological Detection Sensor Chip and COVID-19 Test Kit” (published 2023)

Key:
[1] = tested on: Negative control virus without spike protein; test: SPR; details: 5'-NH2 with 12C spacer
[2] = biological target: Bovine serum albumin (BSA) (Bos taurus, UniProt P02769 P02769:25-607); test: SPR
Sequence of Bovine serum albumin (BSA) (P02769 25-607, one chain of several): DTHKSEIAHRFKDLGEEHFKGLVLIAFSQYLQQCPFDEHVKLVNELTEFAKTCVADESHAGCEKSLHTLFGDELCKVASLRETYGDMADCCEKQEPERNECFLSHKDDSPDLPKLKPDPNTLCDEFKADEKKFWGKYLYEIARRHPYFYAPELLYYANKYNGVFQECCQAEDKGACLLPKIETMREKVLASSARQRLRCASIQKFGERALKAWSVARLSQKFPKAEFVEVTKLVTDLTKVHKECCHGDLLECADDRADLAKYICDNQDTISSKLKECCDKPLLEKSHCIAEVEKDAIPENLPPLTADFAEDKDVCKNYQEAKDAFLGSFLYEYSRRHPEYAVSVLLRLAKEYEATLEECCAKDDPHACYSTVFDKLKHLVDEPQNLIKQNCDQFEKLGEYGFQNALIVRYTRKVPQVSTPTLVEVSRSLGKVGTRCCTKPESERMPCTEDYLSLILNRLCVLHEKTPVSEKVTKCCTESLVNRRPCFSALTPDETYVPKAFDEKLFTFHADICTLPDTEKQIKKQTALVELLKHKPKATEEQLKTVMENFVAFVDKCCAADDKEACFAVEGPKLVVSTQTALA

## CAGCACCGACCTTGTGCTTTGGGAGTGCTGGTCCAAGGGCGTTAATGGACA [Capturing aptamer against SARS-CoV-2 SRBD]
[1]
  binding: 23 RU

B1: Capturing aptamer against SARS-CoV-2 SRBD (ssDNA)
DNA: CAGCACCGACCTTGTGCTTTGGGAGTGCTGGTCCAAGGGCGTTAATGGACA
modifications: 5'-NH2 with 12C spacer
[2]
  binding result: no binding
